Data as given in PMC4218836 (2014).

Key:
GST-RhoBL63 [1] = biological target: T1, GST-RhoBL63 (UniProt P62745 1-196, L63); assay: SPR
GST-RhoAL63 [2] = biological target: T2, GST-RhoAL63 (UniProt P61586 1-193, L63); assay: SPR
GST-RhoBL63 [3] = biological target: T1, GST-RhoBL63; assay: SPR; remark: listed apart in the source
GST-RhoAL63 [4] = biological target: T2, GST-RhoAL63; assay: SPR; remark: listed apart in the source
6xHis-RhoAL63 = 6xHis-RhoAL63 (UniProt P61586 1-193, L63); assay: ELISA
Sequence of 6xHis-RhoAL63 (P61586 other isoform, or with tags, fused parts or gaps L63): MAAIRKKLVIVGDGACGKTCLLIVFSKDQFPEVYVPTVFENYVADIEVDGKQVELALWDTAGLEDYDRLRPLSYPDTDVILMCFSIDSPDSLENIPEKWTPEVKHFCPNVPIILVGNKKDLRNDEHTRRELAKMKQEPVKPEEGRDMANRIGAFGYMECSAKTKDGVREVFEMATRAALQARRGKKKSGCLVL

6xHis-RhoBL63 = 6xHis-RhoBL63 (UniProt P62745 1-196, L63); assay: ELISA
Sequence of 6xHis-RhoBL63 (P62745 other isoform, or with tags, fused parts or gaps L63): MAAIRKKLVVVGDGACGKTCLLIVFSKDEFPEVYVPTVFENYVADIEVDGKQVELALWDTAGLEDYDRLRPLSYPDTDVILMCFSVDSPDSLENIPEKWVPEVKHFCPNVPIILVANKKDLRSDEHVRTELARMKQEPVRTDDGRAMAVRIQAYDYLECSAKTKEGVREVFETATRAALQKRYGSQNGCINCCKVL

T2 sequence (P61586 other isoform, or with tags, fused parts or gaps L63): as the sequence (P61586 other isoform, or with tags, fused parts or gaps L63) above
T1 sequence (P62745 other isoform, or with tags, fused parts or gaps L63): as the sequence (P62745 other isoform, or with tags, fused parts or gaps L63) above

| Binder | Kd (GST-RhoBL63 [1]) [nM] | Kd (GST-RhoAL63 [2]) [nM] | koff (GST-RhoBL63 [3]) [s⁻¹] | koff (GST-RhoAL63 [4]) [s⁻¹] | Kd (6xHis-RhoAL63) [nM] | Kd (6xHis-RhoBL63) [nM] |
| --- | --- | --- | --- | --- | --- | --- |
| scFvE3 (soluble, in fusion with the N-terminal domain of the phage P3 protein) (scFv, V domains shown) VH: not shown VL: SSELTQDPAVSVALGQTVRITCQGDSLRSYYTSWYQQKPGQAPVRVIYGKNNRPSGVPDRFSGSSSGNTASLTITGAQAEDEADYYCNSRDSSGNHAYVFGGGTKLTVL | 3.14 | 36.9 | 0.000683 | 0.0176 |  |  |
| scFvD10 (soluble, in fusion with the N-terminal domain of the phage P3 protein) (scFv, V domains shown) VH: not shown VL: SSELTQDPAVSVALGQTVRITCQGDSLRSYYASWYQQKPGQAPVLVIYGKNNRPSGIPDRFSGSSSGNTASLTITGAQAEDEADYYCNSRDSSGNHAYVFGGGTKLTVL |  | 39.6 |  | 0.00297 |  |  |
| scFvA5 (soluble, in fusion with the N-terminal domain of the phage P3 protein) (scFv, V domains shown) VH: not shown VL: SSELTQDPAVSVALGQTVRITCQGDSLRSYYASWYQQKPGQAPVLVIYGKNNRPSGIPDRFSGSSSGNTASLTITGAQAEDEADYYCNSRDSSGNHAYVFGGGTKLTVL |  |  |  |  | 24.5 | 24 |
| scFvF7 (soluble, in fusion with the N-terminal domain of the phage P3 protein) (scFv, V domains shown) VH: not shown VL: SSELTQDPAVSVALGQTVRITCQGDSLRSYYASWYQQKPGQAPVLVIYGKNNRPSGIPDRFSGSSSGNTASLTITGAQAEDEADYYCNTRDSSGNHAYVFGGGTKLTVL | 3.39 | 2.35 | 0.000414 | 0.000248 |  |  |
